Source: patent US20210324099A1 (Chugai, published 2021)
Substitutions are numbered along the chain they refer to.

T1: hFcgRIIaR (human, UniProt P12318 34-217)
T1 construct: extracellular domain; also called human FcγRIIa type R (R131)
T1 sequence (looked up): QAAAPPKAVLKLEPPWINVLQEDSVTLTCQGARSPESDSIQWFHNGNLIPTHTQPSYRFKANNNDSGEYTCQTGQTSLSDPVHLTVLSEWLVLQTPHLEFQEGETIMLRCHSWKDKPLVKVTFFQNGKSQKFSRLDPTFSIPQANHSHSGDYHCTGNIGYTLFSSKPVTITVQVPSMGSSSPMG

T2: hFcgRIIaH (human, UniProt P12318 34-217)
T2 construct: extracellular domain; also called human FcγRIIa type H (H131)
T2 sequence (looked up): T1 sequence (looked up) with R134H

T3: hFcgRIIb (human, UniProt P31994 43-217)
T3 construct: extracellular domain; also called human FcγRIIb
T3 sequence (looked up): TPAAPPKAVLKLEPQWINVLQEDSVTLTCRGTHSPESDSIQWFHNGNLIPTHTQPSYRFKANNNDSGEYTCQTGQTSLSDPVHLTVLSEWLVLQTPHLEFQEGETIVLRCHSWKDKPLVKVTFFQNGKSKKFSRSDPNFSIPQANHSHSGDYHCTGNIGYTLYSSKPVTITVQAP

B1: A375-MY518a/B167-Lamlib (antibody, human IgG1, lambda)
heavy: EVQLVESGGGLVKPGGSLRLSCAASGFTFSTFTMNWVRQAPGKGLEWVSSISSKSTYIEYADSFKVRFTISRDNAKNSLYLQMNSLRAEDTAVYYCARYGAKNFLNWVFDYWGQGTLVTVSSASTKGPSVFPLAPSSKSTSGGTAALGCLVKDYFPEPVTVSWNSGALTSGVHTFPAVLQSSGLYSLSSVVTVPSSSLGTQTYICNVNHKPSNTKVDKRVEPKSCDKTHTCPPCPAPELWNGPSVFLFPPKPKDTLMISRTPEVTCVVVDVSDEDPEVKFNWYVDGVEVHNAKTKPREELYNSTYRVVSVLTVLHQDWLNGKEYKCKVSNTALPKPIEKTISKAKGQPREPQVYTLPPSREEMTKNQVSLTCLVKGFYPSDIAVEWESNGQPENNYKTTPPVLDSDGSFFLYSKLTVDKSRWQQGNVFSCSVMHEALHNHYTQKSLSLSP
light: QSALTQPPSASGSPGQTVTISCTGTRYDVGYYEYVSWYQQHPGKAPKLMIYETSKRLSGVPDRFSGSKSGNTASLTVSGLQAEDEADYYCSSYRYEHQVSFGGGTKLTVLGQPKAAPSVTLFPPSSEELQANKATLVCLISDFYPGAVTVAWKADSSPVKAGVETTTPSKQSNNKYAASSYLSLTPEQWKSHRSYSCQVTHEGSTVEKTVAPTECS
notes: copies: 2 + 2
B2: A375-P253/B167-Lamlib (antibody, human IgG1, lambda)
heavy: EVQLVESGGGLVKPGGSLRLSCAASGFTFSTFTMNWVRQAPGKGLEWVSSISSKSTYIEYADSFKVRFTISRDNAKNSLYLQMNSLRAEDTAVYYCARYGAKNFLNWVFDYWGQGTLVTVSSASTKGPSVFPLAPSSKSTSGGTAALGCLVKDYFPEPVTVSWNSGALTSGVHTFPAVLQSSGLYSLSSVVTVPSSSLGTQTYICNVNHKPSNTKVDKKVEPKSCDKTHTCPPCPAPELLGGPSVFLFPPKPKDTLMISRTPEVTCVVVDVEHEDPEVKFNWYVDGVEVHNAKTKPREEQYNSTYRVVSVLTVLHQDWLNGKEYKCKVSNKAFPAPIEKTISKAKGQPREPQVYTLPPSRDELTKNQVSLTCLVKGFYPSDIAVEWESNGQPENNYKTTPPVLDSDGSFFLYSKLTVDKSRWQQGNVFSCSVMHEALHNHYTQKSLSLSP
light: B1 light
notes: copies: 2 + 2
B3: A375-P587/B167-Lamlib (antibody, human IgG1, lambda)
heavy: EVQLVESGGGLVKPGGSLRLSCAASGFTFSTFTMNWVRQAPGKGLEWVSSISSKSTYIEYADSFKVRFTISRDNAKNSLYLQMNSLRAEDTAVYYCARYGAKNFLNWVFDYWGQGTLVTVSSASTKGPSVFPLAPSSKSTSGGTAALGCLVKDYFPEPVTVSWNSGALTSGVHTFPAVLQSSGLYSLSSVVTVPSSSLGTQTYICNVNHKPSNTKVDKKVEPKSCDKTHTCPPCPAPDLLGGDSVFLFPPKPKDTLMISRTPEVTCVVIDVAEEDGEVKFNWYVDGVEVHNAKTKPREEQYNSTYRVVSVLTVLHQDWLNGKEYKCKVSNKALPAPIEKTISKAKGQPREPQVYTLPPSRDELTKNQVSLTCLVKGFYPSDIAVEWESNGQPENNYKTTPPVLDSDGSFFLYSKLTVDKSRWQQGNVFSCSVMHEALHNHYTQKSLSLSP
light: B1 light
notes: copies: 2 + 2
B4: A375-SCF025/B167-Lamlib (antibody, human IgG1, lambda)
heavy: B1 heavy with R219K, P348R, D418K
light: B1 light
B5: A375-SCF025a/B167-Lamlib (antibody, human IgG1, lambda)
heavy: B1 heavy with P348R, D418K
light: B1 light
B6: A375-SCF027/B167-Lamlib (antibody, human IgG1, lambda)
heavy: EVQLVESGGGLVKPGGSLRLSCAASGFTFSTFTMNWVRQAPGKGLEWVSSISSKSTYIEYADSFKVRFTISRDNAKNSLYLQMNSLRAEDTAVYYCARYGAKNFLNWVFDYWGQGTLVTVSSASTKGPSVFPLAPSSKSTSGGTAALGCLVKDYFPEPVTVSWNSGALTSGVHTFPAVLQSSGLYSLSSVVTVPSSSLGTQTYICNVNHKPSNTKVDKKVEPKSCDKTHTCPPCPAPEYLGGDSVFLFPPKPKDVLMISRTPEVTCVVIDVSHEDPEVKFNWYVDGVEVHNAKTKPREEQYNSTYRVVSVLPVLHQDWLNGKEYKCKVSNKALPKPIEKTISKAKGQRREPQVYTLPPSREEMTKNQVSLTCLVKGFYPSDIAVEWESNGQPENNYKTTPPVLDSDGSFFLYSKLTVKKSRWQQGNVFSCSVMHEALHNHYTQKSLSLSP
light: B1 light
notes: also called A375-SCF027/B167-LamLab
B7: A375-SCF028/B167-Lamlib (antibody, human IgG1, lambda)
heavy: B6 heavy with G242D, I269V
light: B1 light

target: T4, hFcgRIIIaV (human, UniProt P08637 17-208); test: SPR 25C; relative to A375-G1T3/B167-Lamlib;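 note: SPR with antibody captured on an anti-human Fab-lambda chip, human FcγR analyte at 8 nM for FcγRIa or 1000 nM for the others, pH 7.4, FcγR RU per captured antibody unit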
T4 construct: extracellular domain; also called human FcγRIIIa allotype V158
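Throughout, for binding per 1RU of antibody: biacore SPR with antibody captured on an anti-human Fab lambda chip, human FcγR injected at 1000 nM (FcγRIa at 8 nM) in pH 7.4 phosphate buffer.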
Protocol: (§1) Biacore T200 (GE Healthcare) was used to evaluate the binding activity to the respective human Fcγ receptor (hereafter referred to as FcγR). Measurement was performed at 25° C. using 50 mM phosphate, 150 mM NaCl, 0.05 w/v %-P20, pH 7.4 as buffer. About 1000 RU of antibody was captured using a sensor chip immobilized with CaptureSelect™ Human Fab-lambda Kinetics Biotin Conjugate (Thermo Fisher Scientific) as a molecule for ligand capturing. Human FcγR was diluted to 8 nM for FcγRIa and 1000 nM for other FcγR in the measurement buffer, and it was interacted to the captured antibody. The binding activity of each antibody to FcγR was assessed by calculating the binding amount of FcγR (RU) per unit amount of antibody using Biacore T200 Evaluation Software 2.0.

T4 sequence (P08637 17-208 F176V): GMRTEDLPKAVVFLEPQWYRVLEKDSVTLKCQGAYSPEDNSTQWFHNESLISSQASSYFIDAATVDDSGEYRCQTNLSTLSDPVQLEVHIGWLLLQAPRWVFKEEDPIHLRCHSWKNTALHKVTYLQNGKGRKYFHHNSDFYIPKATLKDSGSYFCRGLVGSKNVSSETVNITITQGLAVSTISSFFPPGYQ

First: B1
Second: B2
The relative binding amount of the first is lower: 0.01 for the first, 0.03 for the second.

First: B3
Second: B4
The relative binding amount of the first is lower: 0 for the first, 0.02 for the second.

First: B5
Second: B6
The relative binding amount of the first is higher: 0.02 for the first, -0.01 for the second.

B7 showed a relative binding amount of -0.01.

target: T1, hFcgRIIaR; test: SPR 25C; relative to A375-G1T3/B167-Lamlib;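 note: SPR with antibody captured on an anti-human Fab-lambda chip, human FcγR analyte at 8 nM for FcγRIa or 1000 nM for the others, pH 7.4, FcγR RU per captured antibody unit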
Protocol: as §1

First: B1
Second: B2
The relative binding amount of the first is lower: 1.01 for the first, 3.62 for the second.

First: B3
Second: B4
The relative binding amount of the first is lower: 0.8 for the first, 1.12 for the second.

Compared with B5, B6 is lower in relative binding amount: 1.12 for the first, 0.12 for the second.

Work on B7 yielded a relative binding amount of 0.64.

target: T5, hFcgRIIIaF (human, UniProt P08637 17-208); test: SPR 25C; relative to A375-G1T3/B167-Lamlib;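 note: SPR with antibody captured on an anti-human Fab-lambda chip, human FcγR analyte at 8 nM for FcγRIa or 1000 nM for the others, pH 7.4, FcγR RU per captured antibody unit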
T5 construct: extracellular domain; also called human FcγRIIIa allotype F158
T5 sequence (P08637 17-208): as the sequence (P08637 17-208 F176V) above, with V160F counted along it
Protocol: as §1

First: B1
Second: B2
The relative binding amount of the first is lower: 0.03 for the first, 0.26 for the second.

First: B3
Second: B4
The relative binding amount of the first is lower: 0 for the first, 0.06 for the second.

Going from B5 to B6, the relative binding amount falls from 0.04 to -0.02.

For B7, the relative binding amount was -0.04.

target: T2, hFcgRIIaH; test: SPR 25C; relative to A375-G1T3/B167-Lamlib;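 note: SPR with antibody captured on an anti-human Fab-lambda chip, human FcγR analyte at 8 nM for FcγRIa or 1000 nM for the others, pH 7.4, FcγR RU per captured antibody unit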
Protocol: as §1

First: B1
Second: B2
The relative binding amount of the first is lower: 0.84 for the first, 0.88 for the second.

First: B3
Second: B4
The relative binding amount of the first is lower: 0.05 for the first, 0.91 for the second.

Compared with B5, B6 is lower in relative binding amount: 0.91 for the first, 0.06 for the second.

B7 was tested, and the relative binding amount was 0.18.

target: T6, hFcgRIa (human, UniProt P12314 16-292); test: SPR 25C; relative to A375-G1T3/B167-Lamlib
T6 construct: extracellular domain; also called human FcγRIa; FcγRI
T6 sequence (P12314 16-292): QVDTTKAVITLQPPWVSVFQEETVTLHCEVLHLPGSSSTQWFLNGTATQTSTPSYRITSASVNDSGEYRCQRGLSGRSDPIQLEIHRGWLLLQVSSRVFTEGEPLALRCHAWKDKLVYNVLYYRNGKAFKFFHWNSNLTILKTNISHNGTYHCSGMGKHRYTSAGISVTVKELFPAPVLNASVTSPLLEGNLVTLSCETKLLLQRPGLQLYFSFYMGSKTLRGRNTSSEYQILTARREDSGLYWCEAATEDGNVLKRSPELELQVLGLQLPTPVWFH
Protocol: as §1

Compared with B1, B2 is higher in relative binding amount: 0.04 for the first, 1.15 for the second.

Going from B3 to B4, the relative binding amount falls from 1.18 to 0.03.

First: B5
Second: B6
The relative binding amount of the first is lower: 0.03 for the first, 0.05 for the second.

For B7, the relative binding amount was 0.03.

target: T3, hFcgRIIb; test: SPR 25C; relative to A375-G1T3/B167-Lamlib
Protocol: as §1

Compared with B1, B2 is higher in relative binding amount: 4.46 for the first, 14.3 for the second.

First: B3
Second: B4
The relative binding amount of the first is higher: 13 for the first, 4.67 for the second.

Compared with B5, B6 is higher in relative binding amount: 4.67 for the first, 6.99 for the second.

In the case of B7, the relative binding amount is reported as 9.08.

target: T4, hFcgRIIIaV; test: SPR 25C

Compared with B1, B2 is higher in “binding per 1RU of antibody” value: 0.0009 RU for the first, 0.0019 RU for the second.

Compared with B3, B4 is higher in “binding per 1RU of antibody” value: 0.0001 RU for the first, 0.0014 RU for the second.

First: B5
Second: B6
The “binding per 1RU of antibody” value of the first is higher: 0.0016 RU for the first, -0.0006 RU for the second.

For B7, the “binding per 1RU of antibody” value was -0.001 RU.

target: T1, hFcgRIIaR; test: SPR 25C

Compared with B1, B2 is higher in “binding per 1RU of antibody” value: 0.047 RU for the first, 0.168 RU for the second.

First: B3
Second: B4
The “binding per 1RU of antibody” value of the first is lower: 0.0371 RU for the first, 0.0519 RU for the second.

Going from B5 to B6, the “binding per 1RU of antibody” value falls from 0.0518 RU to 0.0058 RU.

In the case of B7, the “binding per 1RU of antibody” value is reported as 0.0299 RU.

target: T5, hFcgRIIIaF; test: SPR 25C

First: B1
Second: B2
The “binding per 1RU of antibody” value of the first is lower: 0.0006 RU for the first, 0.0056 RU for the second.

Going from B3 to B4, the “binding per 1RU of antibody” value rises from 0.0001 RU to 0.0012 RU.

Compared with B5, B6 is lower in “binding per 1RU of antibody” value: 0.0009 RU for the first, -0.0005 RU for the second.

B7 was tested, and the “binding per 1RU of antibody” value was -0.0009 RU.

target: T2, hFcgRIIaH; test: SPR 25C

First: B1
Second: B2
The “binding per 1RU of antibody” value of the first is lower: 0.0479 RU for the first, 0.0497 RU for the second.

Compared with B3, B4 is higher in “binding per 1RU of antibody” value: 0.0029 RU for the first, 0.0514 RU for the second.

First: B5
Second: B6
The “binding per 1RU of antibody” value of the first is higher: 0.0514 RU for the first, 0.0031 RU for the second.

For B7, the “binding per 1RU of antibody” value was 0.0101 RU.

target: T6, hFcgRIa; test: SPR 25C

Compared with B1, B2 is higher in “binding per 1RU of antibody” value: 0.0033 RU for the first, 0.0937 RU for the second.

Going from B3 to B4, the “binding per 1RU of antibody” value falls from 0.0962 RU to 0.0022 RU.

Compared with B5, B6 is higher in “binding per 1RU of antibody” value: 0.0021 RU for the first, 0.0044 RU for the second.

For B7, the “binding per 1RU of antibody” value was 0.0027 RU.

target: T3, hFcgRIIb; test: SPR 25C

Going from B1 to B2, the “binding per 1RU of antibody” value rises from 0.0489 RU to 0.156 RU.

Going from B3 to B4, the “binding per 1RU of antibody” value falls from 0.143 RU to 0.0512 RU.

First: B5
Second: B6
The “binding per 1RU of antibody” value of the first is lower: 0.0511 RU for the first, 0.0766 RU for the second.

In the case of B7, the “binding per 1RU of antibody” value is reported as 0.0995 RU.

target: human FcRn (human, UniProt P55899 24-290; P61769 21-119, limits assumed); test: SPR 25C pH 6.0, steady state;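 note: antibody captured on chip via anti-human Fab-lambda ligand, human FcRn injected as analyte in 50 mM phosphate buffer with 150 mM NaCl and P20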
Sequence (P55899 24-290 limits assumed, chain 1 of 2): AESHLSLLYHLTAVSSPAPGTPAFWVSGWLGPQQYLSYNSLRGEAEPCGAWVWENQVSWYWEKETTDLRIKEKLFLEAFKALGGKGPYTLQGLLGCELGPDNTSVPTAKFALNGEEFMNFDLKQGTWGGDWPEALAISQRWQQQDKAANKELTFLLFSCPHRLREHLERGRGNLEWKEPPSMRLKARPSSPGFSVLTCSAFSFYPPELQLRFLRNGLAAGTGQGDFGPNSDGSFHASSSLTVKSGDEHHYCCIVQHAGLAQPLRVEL
Sequence (P61769 21-119 limits assumed, chain 2 of 2): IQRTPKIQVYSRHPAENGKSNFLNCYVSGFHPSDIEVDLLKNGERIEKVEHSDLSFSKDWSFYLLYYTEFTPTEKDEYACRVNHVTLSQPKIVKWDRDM
Protocol: Biacore T200 (GE Healthcare) was used to assess the binding activity to human FcRn. Measurement was performed at 25° C. using 50 mM phosphate, 150 mM NaCl, 0.05 w/v %-P20, pH 6.0 as buffer. […] About 400 RU of antibody was captured using a sensor chip immobilized with CaptureSelect™ Human Fab-lambda Kinetics Biotin Conjugate (Thermo Fisher Scientific) as a molecule for ligand capturing, followed by the binding of human FcRn diluted in measuring buffer. The activity of the respective antibodies to bind FcRn was assessed by calculating KD (mol/L) by the steady-state model using Biacore T200 Evaluation Software 2.0.

B1 and B2 are within 1.5-fold of each other in Kd: 1320 nM for the first, 1420 nM for the second.

Going from B3 to B4, the Kd falls from 1700 nM to 1100 nM (1.5-fold). The second binds more tightly here.

B5 and B6 are within 1.5-fold of each other in Kd: 1130 nM for the first, 1330 nM for the second.

B7 was tested, and the Kd was 1270 nM.
